We go through seven molecules from US7329737 (DYAX, dated 2008).

B1: M0117-B07 (Fab, V domains shown)
VH: EVQLLESGGGLVQPGGSLRLSCAASGFTFSHYTMWWVRQAPGKGLEWVSRIWPSGGTTRYADSVKGRFTISRDNSKNTLYLQMNSLRAEDTAVYYCARGGSYLAFDIWGQGTMVTVSS
VL: DIQMTQSPATLSLSPGERATLSCRASQSVSSYLAWYQQKPGQAPRLLIYDASNRATGIPARFSGSGSGTDFTLTISSLEPEDFAVYYCQQRSNFGGGTKVEIKR
B2: M0126-H09 (Fab, V domains shown)
VH: EVQLLESGGGLVQPGGSLRLSCAASGFTFSNYTMMWVRQAPGKGLEWVSGIYPSGGQTAYADSVKGRFTISRDNSKNTLYLQMNSLRAEDTAVYYCARGGSWYAFDIWGQGTMVTVSS
VL: AQSVLTQDPAVSVALGQTVRFTCQGDSLRNYHPSWYQQKPRQAPVLVMFGRNNRPSGIPDRFSGSTSGGTASLTITATQADDEADYFCSSRDGSGNFLFGGGTKLTVLG
B3: M0106-E12 (Fab, V domains shown)
VH: EVQLLESGGGLVQPGGSLRLSCAASGFTFSHYNMTWVRQAPGKGLEWVSSIWPSGGATRYADSVKGRFTISRDNSKNTLYLQMNSLRAEDTAVYYCARTSRFYGMDVWGQGTTVTVSS
VL: DIQMTQSPGTLSLSPGERATLSCRPSQSVYSNYLAWYQQKPGQAPRLLIYGASTRATGIPDRFSGSASGTDFTLTISRLEPEDFAVYYCQQYGNSYTFGPGTKVDIKR
B4: M0106-C06 (Fab, V domains shown)
VH: EVQLLESGGGLVQPGGSLRLSCAASGFTFSHYTMQWVRQAPGKGLEWVSSIYPSGGATKYADSVKGRFTISRDNSKNTLYLQMNSLRAEDTAMYYCARSGYYYGLDVWGQGTTVTVSS
VL: DIQMTQSPATLSASVGDRVTITCRASQSVSRWLAWYQQKPGKAPKLLIYKASTLESGVPSRFSGSGSGTEFTLTISSLQPDDFATYYCQQYGAFGQGTKVEIRR
B5: M0124-H10 (Fab, V domains shown)
VH: EVQLLESGGGLVQPGGSLRLSCAASGFTFSNYFMNWVRQAPGKGLEWVSSIGSSGGYTRYADSVKGRFTISRDNSKNTLYLQMNSLRAEDTAVYYCARVGVWYGMDVWGQGTTVTVSS
VL: DIQMTQSPATLSLSAGERATLSCRASQSVNIDVGWYQQKPGQAPRLLIYDASKRATGIPTRFSGSGSGTDFTLTIANLEPEDFAVYYCQQRARWLTFGGGTRLEIKR
B6: M0093-C10 (Fab, V domains shown)
VH: EVQLLESGGGLVQPGGSLRLSCAASGFTFSRYTMEWVRQAPGKGLEWVSVIRPSGGTTMYADSVKGRFTISRDNSKNTLYLQMNSLRAEDMAVYYCARVGVWYGMDVWGQGTTVTVSS
VL: DIQITQSPSSLSASVGDRVTITCRASQGISNYLAWYQQKPGKVPKLLIYAASTLQSGVPSRFSGSGSGTDFTLTISSLQPEDFATYYCEQLNSFPHAFGQGTKVEIKR
B7: M0122-D01 (Fab, V domains shown)
VH: EVQLLESGGGLVQPGGSLRLSCAASGFTFSHYIMHWVRQAPGKGLEWVSGIYPSGGSTKYADSVKGRFTISRDNSKNTLYLQMNSLRAEDTAVYYCARALVGALDYWGQGTLVTVSS
VL: DIQMTQSPSSVSASVGDRVTITCRASQDIRTWLAWYQQKSGKAPKLLIYSSSSLQSGISSRFSGSGSGTDFTLTISNLQPEDSAIYYCQQATTFPWTFGQGTKVEIKR

The assay deals with T1, hK1 (human tissue kallikrein 1), recombinant (human, UniProt P06870 25-262).
T1 construct: Expressed in P. pastoris from KLK1 cDNA and purified; enzymatically active; also called KLK1; Recombinant (Pichia) Kallikrein
Put plainly: SPR.
As for B1, the Kd was determined as 22.8 nM, the koff was determined as 0.00826 s⁻¹ and the kon was found to be 362000 M⁻¹ s⁻¹.
On the same counts, the results for B2 are 23 nM, 0.415 s⁻¹ and 1.8e+07 M⁻¹ s⁻¹.
With B3, the Kd is 19.9 nM, the koff came out at 2.44 s⁻¹ and the kon was 1.23e+08 M⁻¹ s⁻¹.
Regarding B4, the dissociation constant (Kd) came to 22.6 nM, the koff was found to be 0.0142 s⁻¹ and the kon was 628000 M⁻¹ s⁻¹.
On the same counts, the results for B5 are 20.3 nM, 0.0012 s⁻¹ and 59100 M⁻¹ s⁻¹.
In the same order, the values of B6 are 22.6 nM, 0.00752 s⁻¹ and 333000 M⁻¹ s⁻¹.
In the same order, the values of B7 are 20.8 nM, 0.00427 s⁻¹ and 205000 M⁻¹ s⁻¹.

A word on the Kd: it is a measure of binding affinity in units of concentration. What is called koff is a measure of how fast the partners let go of each other. For orientation: kon means a measure of how fast the partners come together.
